This is an account of results in US20240067729A1 (published 2024).

The labels stand for the following.
B1: 769-hIgG1 (chimeric PAL769) (antibody, V domains shown)
VH: EVQLQESGAELVKPGASVTLSCTASGFNIKDTYMHWVKQRPEQGLEWIGRIDPANDNTKYDPKFQDKATITADTSSDTAYLRLSSLTSEDTAVYYCAREGYGGSYGEGYWGQGTTLTVSS
VL: SIVMTQTPKFLLVSAGDRVTITCKASQSVSNDVIWYQQKPGQSPKLLIYYASIRFTGVPDRFAGSGYGTDFTFTINTVQAEDLAVYFCQQDYNSPWTFGGGTKLEIK
B2: 788-hIgG1 (chimeric PAL788) (antibody, V domains shown)
VH: QVQLQQPGAELVKPGASVKLSCKASGYTFTSNWMNWVKQRPGRGLEWIGRIHPSDSETHYHQKFKSKATLTVDKSSSTAYIQLSSLTSEDSAVYYCAHSSGDYGRDYWGQGTTLTVSS
VL: NIVLTQSPASLAVSLGQRATISCRASESVDSYGNSFMHWYQQKPGQPPKLLIYLASNLQSGVPARFSGSGSRTDFTLTIDPVEADDAATYYCQQNNEDPWTFGGGTKLEIK
B3: 785-hIgG1 (chimeric PAL785) (antibody, V domains shown)
VH: EVQLQESGPELVKPGTSVKMSCKASGYTFTSYVMHWVKQRPGQGLEWIGYINPYNDGSKYNEKFKGKATLTSDTSSSTAYMELSSLTSEDSAVYYCAKQTLDFWGQGTSVTVST
VL: DIVLTQSPASLAVSLGQRATISCRASESVEFYGTTLMQWYQQKPGQPPKLLIYAASNVESGVPARFSGSGSGTDFSLNIHPVEEGDIGMYFCQQSRKVPYTFGGGTKLEIK
B4: 752-hIgG1 (chimeric PAL752) (antibody, V domains shown)
VH: EVQLQESGAELARPGASVKLSCKASGHAFTSDSINWVKQRIGQGLEWIGEIYPRSGNPYYNEKFKGKATLTADKSSSTAYMELRSLTSEDSAVYFCATDYYGRYFDVWGTGTTVTVSS
VL: DIQMTQSSFSFSVSLGDRVTIICKASEDIYNRLAWYQQKPGNTPRLLISGATSLETGVPSRFSGSGSGKDYTLSITSLQTEDVATYYCQQYWSTPWTFGGGTKLEIK
B5: 767-hIgG1 (chimeric PAL767) (antibody, V domains shown)
VH: EVQLQESGPSLVKPSQTLSLTCSVTGDSITSGYWNWIRKFPGNKLEYMGYISYTGSTYYNPSLKRRISITRDTSKNQYYLQLNSVTTEDTATYYCASQGGWLQAMDYWGQGTSVTVSS
VL: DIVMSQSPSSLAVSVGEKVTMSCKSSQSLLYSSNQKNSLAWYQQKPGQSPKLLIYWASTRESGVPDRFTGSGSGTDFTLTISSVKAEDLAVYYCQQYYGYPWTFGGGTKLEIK
B6: h769-tm2 (humanized 769-hIgG1 variant) (antibody, V domains shown)
VH: EVQLVQSGAEVKKPGATVKISCKVSGFNIKDTYMHWVQQAPGKGLEWMGLIDPANDNTIYAEKFQGRVTITADTSTDTAYMELSSLRSEDTAVYYCAREGYGGSYGEGYWGQGTLVTVSS
VL: EIVMTQSPPTLSLSPGERVTLSCRASQSVSNDLSWYQQKPGQAPRLLIYYASIRFTGIPARFSGSGYGTDFTLTISSLQPEDFAVYYCQQDYNSPWTFGQGTKVEIK
B7: h769-IF3 (humanized 769-hIgG1 variant) (antibody, V domains shown)
VH: B6 VH
VL: B6 VL with Y67S
B8: h769-tm3 (humanized 769-hIgG1 variant) (antibody, V domains shown)
VH: B6 VH
VL: B6 VL with Y67S, Y87F
B9: PAL771.2 (antibody, V domains shown)
VH: EVQLQESGAELVKPGASVKLSCTASGFNIKDTYMHWVKQRPEQGLEWIGRIDPANGNTKYDPKFPGKATITADTSSNTAYLQLSSLTSEDAAVYYCARPFNYRFYDVYYFDYWGQGTTLTVST
VL: QIVLTQSPAIMSASPGEKVTMTCSASSSVSYMYWYQQKPGSSPRLLIYDTSNLASGVPLRFSGSGSGTSYSLTLSRMEAEDAATYYCQQWSTYPLTFGAGTKLELK

Numbering of substitutions follows the chain as printed.

T1 sequence (Q9NZQ7 19-238): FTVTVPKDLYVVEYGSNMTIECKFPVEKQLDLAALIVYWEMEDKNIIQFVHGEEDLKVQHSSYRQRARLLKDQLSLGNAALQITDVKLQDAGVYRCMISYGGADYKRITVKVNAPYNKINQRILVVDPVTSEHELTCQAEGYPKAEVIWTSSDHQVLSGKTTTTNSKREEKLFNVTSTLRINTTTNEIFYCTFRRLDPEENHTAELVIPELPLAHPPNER

The first test addresses T1, human PD-L1 (hPD-L1) coated on ELISA wells, Example 7 (human, UniProt Q9NZQ7 19-238). In words: Blocking ELISA. For orientation: ELISA stands for enzyme-linked immunosorbent assay.
B1: the midpoint of inhibition, the IC50, lay at 1.58 nM.

In turn, B2 gave a half-inhibitory concentration (IC50) of 2.93 nM. Consider B3, for which 1.94 nM corresponded to half-maximal inhibition (IC50). On the same count and under the same terms, for B4 the value was 4.64 nM.

Molecule B5 registered an IC50 of 2.01 nM.

The target of another test is T1, human PD-L1 (hPD-L1) coated on ELISA …. In words: blocking ELISA (hPD1-Fc binding).
Take B1: the IC50 is 1.57 nM. The molecule B6 showed an IC50 of 1.44 nM.

B7 came in with an IC50 of 1.47 nM. For the molecule B8, the IC50 was found to be 1.29 nM.

A further test shares this target. In words: huPD1-Fc blocking ELISA.
B9 yielded an IC50 of 0.6 nM.

What is called IC50 is the concentration at which inhibition is half-maximal. A low value points to greater potency in that assay.
